Measured values reported in patent US11918645B2, “Vaccines against hepatitis B virus” (priority 2012, dated 2024).
Entries after “also recorded” stand apart in the source; their conditions may differ.

Legend:
[1] = system: PBMC from chronic HBV-infected subjects; test: IFNγ ELISpot of PBMC restimulated with individual unconjugated HBV long peptides (Example 5); type: cell-based, human; details: for T cell responses (IFNγ ELISpot), level and frequency of responders: HBeAg-negative inactive carriers and HBeAg-negative treated subjects, 5 μg/mL, 18 h, FIGS. 9 and 10; for T cell responses (IFNγ ELISpot) grouped by infecting HBV genotype: genotypes A, B, C & D, FIG. 11; for T cell responses (IFNγ ELISpot) grouped by ethnic background: three ethnic groups, FIG. 12
Procedure: One vial of PBMC from each subject (containing 1×10^7 cells) was thawed and lymphocyte numbers were determined using a Scepter™ automated handheld cell counter. PBMC were cultured in 2 mL culture medium (CM: RPMI-1640 Glutamax supplemented with 5% human AB serum) in 24 well cell culture plates at a concentration of 1×10^6 cells/mL for a total of 11 days. Cells were stimulated with a mixture of the nine HBV-derived long peptides described in Example 3.
Each peptide was used at a final concentration of 1 μg/peptide/mL. On Day 4, IL-2 and IL-15 were added to the cultures to final concentrations of 10 IU/mL and 10 ng/mL respectively. On Day 10, cells were washed twice in CM and cultured with 10 IU/mL IL-2 for 1 additional day. On Day 11, cells were washed twice in CM, counted and incorporated in a human IFNγ (interferon-gamma) ELISpot assay or intracellular cytokine staining.
Cells from short term cultures were plated in triplicate wells at 5×10^4 PBMC/well. Final antigen concentrations used were: 5 μg/mL for each individual peptides; PHA positive control: 1 μg/mL.

HLA-A*0201 = HLA-A*0201 (Homo sapiens, UniProt P04439, D140Y/D185E/D98H/E176V/E277Q/G131W/G231S/I119V/I121R/I166T/I218V/L300P/L318F/N151K/N90K/P208A/P217A/Q86G/Q94H/R138H/R169H/T345S); test: ProImmune REVEAL MHC class I binding assay of nonamers; details: score as % of positive control peptide
Text: (§1) The number of HLA class I binding registers contained in each peptide may be determined by determining the ability of the peptide to bind to a range of frequently occurring HLA class I molecules. HLA class I binding may be measured using the ProImmune REVEAL® MHC-peptide Binding Assay (ProImmune Ltd, Oxford, UK). The REVEAL™ MHC peptide-binding assay measures the ability of each peptide to stabilize the ternary MHC-peptide complex for […], HLA-A*0201, HLA¬A*0301, HLA-A*2402, HLA-B*0702, HLA-B*0801, HLA-B*3501 representative of main HLA class I supertypes. Each tested peptide is given a score relative to a pass/fail control peptide and also compared to a positive control peptide.
(§2) Detection is based on the presence or absence of the native conformation of the MHC-peptide complex. The highly frequent HLA class I alleles (HLA-A*0201, A*0301, A*1101, A*2402, B*0702, B*0801, and B*3501) were selected. Binding to MHC molecules was compared to that of a known T-cell epitope, a positive control peptide, with very strong binding properties. […] The score of the test peptide is reported quantitatively as a percentage of the signal generated by the positive control peptide, and the peptide is indicated as having a putative pass or fail result. Good binders are considered to be those peptides with scores 45% of the positive control as defined by ProImmune.

HLA-A*0301 = target: T1, HLA-A*0301 (Homo sapiens, UniProt P04439); test: as above; details: score as % of positive control peptide
T1 construct: purchased ProImmune
Text: as §1, §2

HLA-A*1101 = target: T2, HLA-A*1101 (Homo sapiens, UniProt P04439, A114D/D185E/E176A/F33Y/L180Q/S129P/T187R); test: as above; details: score as % of positive control peptide
T2 construct: purchased ProImmune
Text: as §1, §2

HLA-A*2402 = HLA-A*2402 (Homo sapiens, UniProt P04439, D101N/D140Y/D185E/E176V/E190D/F33S/G103R/G107R/I119L/I121M/I306V/K335N/L105A/L180Q/L300P/N151K/N90K/Q86E/Q94H/R106L/R138H/R89G/T104I/T345S/V100E/W191G/Y123F); test: as above; details: score as % of positive control peptide
Text: as §1, §2

HLA-B*0702 = target: T3, HLA-B*0702 (Homo sapiens, UniProt P01889); test: as above; details: score as % of positive control peptide
T3 construct: purchased ProImmune
Text: as §1, §2

HLA-B*0801 = HLA-B*0801 (Homo sapiens, UniProt P01889, A93T/A95T/D138N/E176V/E187T/K202T/Q94N/R180D/S35A/V36M/Y33D/Y91F); test: as above; details: score as % of positive control peptide
Text: as §1, §2

HLA-B*3501 = HLA-B*3501 (Homo sapiens, UniProt P01889, A329T/A93T/A95T/C349S/D201E/D98Y/E176V/E187L/E204Q/E69T/I218V/K202T/L119I/Q94N/R155S/R180L/S121R/S35A/S48A/T118I/V127L/V306I/V36M/Y140S/Y91F); test: as above; details: score as % of positive control peptide
Text: as §1, §2

HLA class I alleles = test: ProImmune REVEAL MHC class I binding assay, summary over the seven alleles; parameters: species or system human; details: for Number of allele (b): number of class I alleles for which positive binding was detected; for Number of HLA binders (a): total number binding epitopes detected for each long peptide, seven class I alleles
Text: as §1, §2

[2] = target: T4, HLA-DR15 (α1*01:01;β1*15:01) (Homo sapiens, UniProt P01903+P01911); test: ProImmune REVEAL MHC class II binding assay of long peptides; details: percentage of the signal of the positive control peptide; positive binding score >=15%
T4 construct: purchased ProImmune
Text: (§3) The highly frequent HLA class II alleles HLA-DR1 (α1*01:01;β1*01:01), HLA-DR15 (α1*01:01;β1*15:01), HLA-DR3 (α1*01:01;β1*03:01), HLA-DR4 (α1*01:01;β1*04:01), HLA-DR11 (α1*01:01;β1*11:01), HLA-DR13 (α1*01:01;β1*13:01), and HLA-DR7 (α1*01:01;β1*07:01) were selected. Each peptide was given a score relative to the positive control peptide, which is a known T-cell epitope. The score of the test peptide is reported quantitatively as a percentage of the signal generated by the positive control peptide, and the peptide is indicated as having a putative pass or fail result. Good binders are considered to be those peptides with scores >=15% of the positive control as defined by Proimmune.

[3] = target: T5, HLA-DR7 (α1*01:01;β1*07:01) (Homo sapiens, UniProt P01903+P01911, A100R/A102G/A103Q/D57E/D86V/E43K/F76Y/K127E/L162R/M171V/P40G/Q125H/Q99D/R195Q/R33Q/R42Y/R54Q/S133A/S149N/S66F/T210M/V115G/Y107V/Y59L/Y89S); test: as above; details: percentage of the signal of the positive control peptide; positive binding score >=15%
T5 construct: purchased ProImmune
Text: as §3

[4] = system: HLA-DP4 (α1*01:03;β1*04:01); test: as above; parameters: species or system human; details: percentage of the signal of the positive control peptide; positive binding score >=15%

## NP753(K): unconjugated HBV long peptide, core KK + 738-770 (S to T at 743) + KKK (KKKEFGATVELLSFLPSDFFPSVRDLLDTASALYRKKK; HBV CONSENSUS SEQUENCE)
[1]
  T cell responses (IFNγ ELISpot), level and frequency of responders: highest level of responses in both patient populations and in the highest proportion of subjects
  T cell responses (IFNγ ELISpot) grouped by infecting HBV genotype: highest responses across all four genotypes A, B, C & D
  T cell responses (IFNγ ELISpot) grouped by ethnic background: highest responses across all three ethnic groups
HLA-A*0201
  Number of nonamers having a binding score >= 45%, HLA-A*0201: 3
HLA-A*0301
  Number of nonamers having a binding score >= 45%, HLA-A*0301: 0
HLA-A*1101
  Number of nonamers having a binding score >= 45%, HLA-A*1101: 1
HLA-A*2402
  Number of nonamers having a binding score >= 45%, HLA-A*2402: 3
HLA-B*0702
  Number of nonamers having a binding score >= 45%, HLA-B*0702: 1
HLA-B*0801
  Number of nonamers having a binding score >= 45%, HLA-B*0801: 1
HLA-B*3501
  Number of nonamers having a binding score >= 45%, HLA-B*3501: 1
HLA class I alleles
  Number of allele (b): 6
  Number of HLA binders (a): 10
[2]
  binding score, HLA-DR15 (α1*01:01;β1*15:01): 0.00%
[3]
  binding score, HLA-DR7 (α1*01:01;β1*07:01): 0.00%
[4]
  binding score, HLA-DP4 (α1*01:03;β1*04:01): 0.65%

## NP113: unconjugated HBV long peptide, polymerase region 96-130 of virtual HBV proteome (VGPLTVNEKRRLKLIMPARFYPNVTKYLPLDKGIK; HBV CONSENSUS SEQUENCE)
[1]
  T cell responses (IFNγ ELISpot), level and frequency of responders: highest level of responses in both patient populations and in the highest proportion of subjects
  T cell responses (IFNγ ELISpot) grouped by infecting HBV genotype: highest responses across all four genotypes A, B, C & D; also recorded: highest T cell response across all four genotypes compared to all other peptides
  T cell responses (IFNγ ELISpot) grouped by ethnic background: highest responses across all three ethnic groups
HLA-A*0201
  Number of nonamers having a binding score >= 45%, HLA-A*0201: 2
HLA-A*0301
  Number of nonamers having a binding score >= 45%, HLA-A*0301: 3
HLA-A*1101
  Number of nonamers having a binding score >= 45%, HLA-A*1101: 5
HLA-A*2402
  Number of nonamers having a binding score >= 45%, HLA-A*2402: 3
HLA-B*0702
  Number of nonamers having a binding score >= 45%, HLA-B*0702: 2
HLA-B*0801
  Number of nonamers having a binding score >= 45%, HLA-B*0801: 3
HLA-B*3501
  Number of nonamers having a binding score >= 45%, HLA-B*3501: 2
HLA class I alleles
  Number of allele (b): 7
  Number of HLA binders (a): 20
[2]
  binding score, HLA-DR15 (α1*01:01;β1*15:01): 28.04%
[3]
  binding score, HLA-DR7 (α1*01:01;β1*07:01): 99.17%
[4]
  binding score, HLA-DP4 (α1*01:03;β1*04:01): 33.51%

## NP151: unconjugated HBV long peptide, polymerase region 134-168 (PEHVVNHYFQTRHYLHTLWKAGILYKRETTRSASF; HBV CONSENSUS SEQUENCE)
[1]
  T cell responses (IFNγ ELISpot), level and frequency of responders: highest level of responses in both patient populations and in the highest proportion of subjects
  T cell responses (IFNγ ELISpot) grouped by infecting HBV genotype: highest responses across all four genotypes A, B, C & D
  T cell responses (IFNγ ELISpot) grouped by ethnic background: highest responses across all three ethnic groups
HLA-A*0201
  Number of nonamers having a binding score >= 45%, HLA-A*0201: 3
HLA-A*0301
  Number of nonamers having a binding score >= 45%, HLA-A*0301: 4
HLA-A*1101
  Number of nonamers having a binding score >= 45%, HLA-A*1101: 3
HLA-A*2402
  Number of nonamers having a binding score >= 45%, HLA-A*2402: 4
HLA-B*0702
  Number of nonamers having a binding score >= 45%, HLA-B*0702: 3
HLA-B*0801
  Number of nonamers having a binding score >= 45%, HLA-B*0801: 4
HLA-B*3501
  Number of nonamers having a binding score >= 45%, HLA-B*3501: 0
HLA class I alleles
  Number of allele (b): 6
  Number of HLA binders (a): 21
[2]
  binding score, HLA-DR15 (α1*01:01;β1*15:01): 38.96%
[3]
  binding score, HLA-DR7 (α1*01:01;β1*07:01): 19.41%
[4]
  binding score, HLA-DP4 (α1*01:03;β1*04:01): 74.36%
